This assay concerns the target GST–XJTGB3 fusion protein (BSMV Xinjiang strain TGB3) (barley stripe mosaic virus, Xinjiang strain). Description: pull-down.

Experimental findings from publication PMC4507770 are described below.

Turning to “XJTGB1_(T395A/T401A) double mutant, C-terminal His-tagged (natural protein)”, the TGB3 protein-binding efficiency compared with wt XJTGB1 came out at 40% and the percent less effective binding than wt XJTGB1 turned out to be 40 % less.
